Legend:
[1] = target: T1, human LAG-3 overexpressed on cells (human, UniProt P18627 23-525); test: flow cytometry, HEK293E cells overexpressing LAG-3, antibody 2 µg/ml
T1 construct: whole, on cells; also called HEK293E-hLAG3; hLAG3 (Human)
T1 sequence (looked up): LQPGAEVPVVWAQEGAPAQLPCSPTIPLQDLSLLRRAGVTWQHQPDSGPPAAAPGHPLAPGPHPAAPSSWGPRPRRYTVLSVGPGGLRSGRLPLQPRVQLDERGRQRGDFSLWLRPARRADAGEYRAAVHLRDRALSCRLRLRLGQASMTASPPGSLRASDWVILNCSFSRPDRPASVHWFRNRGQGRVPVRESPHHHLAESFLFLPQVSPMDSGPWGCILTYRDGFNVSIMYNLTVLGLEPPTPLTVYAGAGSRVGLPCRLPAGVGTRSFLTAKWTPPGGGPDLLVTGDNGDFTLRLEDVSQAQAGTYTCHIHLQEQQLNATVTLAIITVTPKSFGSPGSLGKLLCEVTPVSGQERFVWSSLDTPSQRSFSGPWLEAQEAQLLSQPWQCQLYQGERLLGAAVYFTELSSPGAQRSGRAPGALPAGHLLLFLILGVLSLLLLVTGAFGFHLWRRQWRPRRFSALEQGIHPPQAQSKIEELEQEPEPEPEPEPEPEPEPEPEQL
Description: (§1) After that, the cells were washed three times with PBS containing 2% FBS and then subjected to the reaction for 30 minutes at 4° C. with anti-human IgG antibody (#FI-3000, Vectorlabs) linked with FITC fluorescent. The cells were washed by the same washing process as above followed by suspension in 0.2 ml PBS containing 2% FBS. The cells were then analyzed by FACSCanto II flow cytometer.

[2] = target: T2, mouse LAG-3 overexpressed on HEK293E cells (mouse, UniProt Q61790 24-521); test: flow cytometry, HEK293E cells overexpressing mouse LAG-3
T2 construct: whole, on cells; also called HEK293E-mLAG3; mLAG3 (Mouse)
T2 sequence (looked up): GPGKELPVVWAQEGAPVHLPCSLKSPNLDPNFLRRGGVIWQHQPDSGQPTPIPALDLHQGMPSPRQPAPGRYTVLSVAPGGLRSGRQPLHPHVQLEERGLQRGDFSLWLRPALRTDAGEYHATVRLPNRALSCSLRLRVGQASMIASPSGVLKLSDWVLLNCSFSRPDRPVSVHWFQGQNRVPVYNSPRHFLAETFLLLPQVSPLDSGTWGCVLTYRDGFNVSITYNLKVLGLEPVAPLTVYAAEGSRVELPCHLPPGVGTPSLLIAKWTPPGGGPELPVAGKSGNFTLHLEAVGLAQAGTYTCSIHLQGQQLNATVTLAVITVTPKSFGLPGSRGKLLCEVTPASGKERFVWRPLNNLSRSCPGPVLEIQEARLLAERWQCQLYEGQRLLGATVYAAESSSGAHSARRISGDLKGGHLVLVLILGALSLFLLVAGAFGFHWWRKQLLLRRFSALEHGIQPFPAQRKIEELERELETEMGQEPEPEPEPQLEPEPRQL
Description: as §1

[3] = target: T3, recombinant human LAG-3-his (#16498-H08H, Sino Biological Inc.) (human, UniProt P18627 23-450); test: scFv phage ELISA on coated antigen, A490
T3 construct: Bought; also called LAG-3-His (WT); not shown: His tag at the carboxy terminal
T3 sequence (looked up): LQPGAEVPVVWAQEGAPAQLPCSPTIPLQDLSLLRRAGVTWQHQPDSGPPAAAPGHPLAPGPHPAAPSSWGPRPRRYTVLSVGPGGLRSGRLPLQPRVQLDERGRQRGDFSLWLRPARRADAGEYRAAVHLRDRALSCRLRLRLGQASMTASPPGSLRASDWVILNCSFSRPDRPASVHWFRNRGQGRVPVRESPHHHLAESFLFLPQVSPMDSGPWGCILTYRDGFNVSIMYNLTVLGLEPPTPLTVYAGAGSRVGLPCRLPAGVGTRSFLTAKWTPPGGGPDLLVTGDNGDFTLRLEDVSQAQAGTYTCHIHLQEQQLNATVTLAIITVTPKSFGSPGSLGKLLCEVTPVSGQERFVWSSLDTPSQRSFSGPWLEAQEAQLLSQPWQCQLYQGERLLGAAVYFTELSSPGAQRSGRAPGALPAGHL

[4] = target: T2, mouse LAG-3 overexpressed on HEK293E …; test: flow cytometry on HEK293E-mLAG3 cells, MFI, fitted curve
Description: as §1

[5] = target: T1, human LAG-3 overexpressed on cells; test: cell-based or functional assay
[6] = target: T4, recombinant human LAG-3 extracellular domain fused with mouse Fc (hLAG-3-mFc) (human, UniProt P18627 29-450); test: BLI (Octet QKe), 1:1 global fit
T4 construct: range 29-450; Made in HEK293F cells; also called human LAG-3 antigen; wild-type (WT) LAG-3; not shown: mouse Fc (mFc) at the carboxy terminal
T4 sequence (looked up): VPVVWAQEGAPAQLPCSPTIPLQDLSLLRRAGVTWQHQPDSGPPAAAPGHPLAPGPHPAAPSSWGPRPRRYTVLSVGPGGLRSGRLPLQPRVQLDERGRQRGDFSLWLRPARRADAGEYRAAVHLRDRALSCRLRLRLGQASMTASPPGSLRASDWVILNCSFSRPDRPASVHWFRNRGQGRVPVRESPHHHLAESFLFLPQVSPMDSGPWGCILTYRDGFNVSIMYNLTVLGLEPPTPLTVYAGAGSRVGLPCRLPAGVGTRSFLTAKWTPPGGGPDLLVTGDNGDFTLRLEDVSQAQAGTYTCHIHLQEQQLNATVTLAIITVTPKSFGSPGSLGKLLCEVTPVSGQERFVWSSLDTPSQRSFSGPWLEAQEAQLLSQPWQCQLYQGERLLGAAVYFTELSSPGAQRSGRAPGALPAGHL
Description: (§2) After stabilization for 10 minutes in a buffer (#18-1042, Fortebio Inc.), immobilized antigen or antibody was washed out for 5 minutes with the buffer. The antibody or antigen desired for binding was prepared at different concentrations (0.94-60 nM) in a 96-well plate (#655209, Greiner Bio-One, USA) and subjected to the association reaction for 10 minutes followed by dissociation reaction for 10 minutes or 30 minutes.

[7] = target: T5, recombinant monkey LAG-3 fused with mouse Fc (MrhLAG-3-mFc) (monkey); test: BLI (Octet QKe), 1:1 global fit
T5 construct: also called monkey LAG-3 antigen
Description: as §2

[8] = target: T6, recombinant mouse LAG-3 fused with mouse Fc (mLAG-Fc) (mouse, UniProt Q61790 24-442, limits assumed); test: BLI (Octet QKe), 1:1 global fit
T6 construct: also called mouse LAG-3 antigen; not shown: mouse Fc (mFc) at the carboxy terminal
T6 sequence (looked up): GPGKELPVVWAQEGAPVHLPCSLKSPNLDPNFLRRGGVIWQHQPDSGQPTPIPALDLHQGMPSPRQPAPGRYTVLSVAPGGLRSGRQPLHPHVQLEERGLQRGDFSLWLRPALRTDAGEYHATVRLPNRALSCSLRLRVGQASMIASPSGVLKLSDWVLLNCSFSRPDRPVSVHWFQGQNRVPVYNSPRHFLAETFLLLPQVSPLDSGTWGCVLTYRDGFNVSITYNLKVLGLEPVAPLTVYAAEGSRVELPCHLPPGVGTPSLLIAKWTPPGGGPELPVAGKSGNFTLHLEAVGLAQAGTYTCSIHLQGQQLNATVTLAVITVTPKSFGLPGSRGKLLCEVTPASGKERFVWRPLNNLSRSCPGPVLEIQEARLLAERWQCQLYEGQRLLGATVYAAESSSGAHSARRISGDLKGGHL
Description: as §2

[9] = target: T4, recombinant human LAG-3 extracellular …; test: Octet biolayer interferometry, 1:1 global fit
Description: as §2

[10] = target: T5, recombinant monkey LAG-3 fused with …; test: Octet biolayer interferometry, 1:1 global fit
Description: as §2

[11] = target: T7, monkey (Rhesus monkey) LAG-3 overexpressed on HEK293E cells (Rhesus monkey, UniProt A0A5F8A874 23-533); test: flow cytometry on HEK293E-MrhLAG3 cells, MFI, fitted curve
T7 construct: whole, on cells; also called HEK293E-MrhLAG3; MrhLAG3 (Rhesus Monkey)
T7 sequence: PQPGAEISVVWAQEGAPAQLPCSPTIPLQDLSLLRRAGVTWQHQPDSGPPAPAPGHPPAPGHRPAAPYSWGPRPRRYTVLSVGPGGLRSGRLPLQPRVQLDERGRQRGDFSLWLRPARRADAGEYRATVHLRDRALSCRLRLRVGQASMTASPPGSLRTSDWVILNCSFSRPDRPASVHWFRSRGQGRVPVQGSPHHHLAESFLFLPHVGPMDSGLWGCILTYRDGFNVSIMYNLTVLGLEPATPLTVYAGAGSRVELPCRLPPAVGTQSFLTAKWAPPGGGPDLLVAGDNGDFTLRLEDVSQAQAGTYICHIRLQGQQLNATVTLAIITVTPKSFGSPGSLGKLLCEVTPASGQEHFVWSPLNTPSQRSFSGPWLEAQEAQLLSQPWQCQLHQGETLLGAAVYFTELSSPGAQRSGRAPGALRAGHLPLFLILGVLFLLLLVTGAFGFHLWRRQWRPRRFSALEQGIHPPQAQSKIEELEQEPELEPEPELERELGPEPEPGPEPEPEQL
Description: as §1

[12] = target: T1, human LAG-3 overexpressed on cells; test: flow cytometry on HEK293E-hLAG3 cells, MFI, fitted curve
Description: as §1

[13] = target: T6, recombinant mouse LAG-3 fused with …; test: BLI (Octet QKe)
[14] = target: T2, mouse LAG-3 overexpressed on HEK293E …; test: flow cytometry on HEK293E-mLAG3 cells, MFI
Description: as §1

B1: LAG3-1E09_AM_2E04 (antibody, V domains shown)
VH: EVQLVESGGDLVKPGGSLRLSCAASGFSFNDHYMNWVRQAPGKGLEWVAYIDTSATYIYYADSVKGRFTISRDNAKNSLYLQMNSLRAEDTAVYYCARDNWGSLDYWGQGTLVTVSS
VL: DIQMTQSPSSLSASVGDRVTIICRASQSISNYLNWYQQEPGKAPKLLIYDASNLESGVPSRFSGSGSGTDFTLTISSLQPEDFATYYCQQSYSTPYTFGQGTKVEIK
notes: Tested as full IgG
B1: binds [1]; no binding (tested: 2 µg/ml) [2]; binds [3].

B2: LAG3-1E09_AM_2H01 (antibody, V domains shown)
VH: EVQLVESGGDLVQPGGSLRLSCAASGFTFSDHYMNWVRQAPGKGLEWVAYIDTSATYIYYADSVKGRFTISRDNAKNSLYLQMNSLRAEDTAVYYCARDNWGSLDYWGQGTLVTVSS
VL: DIQMTQSPSSLSASVGDRVTITCQASQDISNYLNWYQQKPGKAPNLLIYDASTLETGVPSRFSGSGYGTDFTLTISGLQPDDFALYYCQQSYSTPYSFGPGTKVEIK
notes: Tested as full IgG
B2 was tested, and the EC50 [4] was 1.74 µg/mL, the “EC50 (µg/ml), LAG3/MHC class II Blockade bioassay” value [5] was 0.0822 µg/mL and the Kd [6] was 0.136 nM. The Kd [7] was 0.629 nM, the Kd [8] was 2.62 nM and the koff [9] was 1.61e-05 s⁻¹. It also gave a kon [9] of 119000 M⁻¹ s⁻¹, a koff [10] of 3.23e-05 s⁻¹ and a kon [10] of 51400 M⁻¹ s⁻¹. It also gave an EC50 [11] of 0.156 µg/mL and an EC50 [12] of 0.0297 µg/mL.

B3: LAG3-1E09_FR_1E05 (antibody, V domains shown)
VH: EVQLVESGGGLVQPGGSLRLSCAASGFSFSDHYMNWVRQAPGKGLEWVAYIDTSATYIYYADSVKGRFTISRDNAKNSLYLQMNSLRAEDTAVYYCARDNWGSLDYWGQGTLVTVSS
VL: DIQMTQSPSSLSASVGDRVTITCRASQSISSWLAWYQHKPGKAPKLLIYDASNLETGAPSRFSGSGSGTDFTFTIYSLQPEDVATYYCQQYDTVPPTFGPGTKVDIK
notes: Tested as full IgG
B3 was tested, and the binding result [13] was “no binding”, the binding result [14] was “no binding (tested: Log10[Ab] about 0.8, µg/ml)” and the “EC50 (µg/ml), LAG3/MHC class II Blockade bioassay” value [5] was 0.0938 µg/mL. For the same binder, the Kd [6] was 0.0906 nM, the Kd [7] was 0.456 nM and the koff [9] was 1.03e-05 s⁻¹. For the same binder, the kon [9] was 114000 M⁻¹ s⁻¹, the koff [10] was 3.7e-05 s⁻¹ and the kon [10] was 81100 M⁻¹ s⁻¹. The EC50 [11] was 0.301 µg/mL and the EC50 [12] was 0.0926 µg/mL.

— patent publication US20210238283A1 (Y BIOLOGICS, published 2021)
